Here are results for one molecule from patent US20220332804A1 (CSL INNOVATION, published 2022).

Where a chain is given by its changes, count along the chain named.

Assay in all cases: SPR, KD relative to WT C2;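 note: biacore SPR at 37 °C, anti-C2 mAbs captured via immobilised goat anti-human IgG, C2 alanine or serine surface mutants as analytes, 1:1 model fitted, double-referenced sensograms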
On the technique in general: SPR reads the build-up and loss of mass on a sensor chip optically.

One assay deals with T1, human C2 Y702A (human, UniProt P06681 21-752).
T1 sequence: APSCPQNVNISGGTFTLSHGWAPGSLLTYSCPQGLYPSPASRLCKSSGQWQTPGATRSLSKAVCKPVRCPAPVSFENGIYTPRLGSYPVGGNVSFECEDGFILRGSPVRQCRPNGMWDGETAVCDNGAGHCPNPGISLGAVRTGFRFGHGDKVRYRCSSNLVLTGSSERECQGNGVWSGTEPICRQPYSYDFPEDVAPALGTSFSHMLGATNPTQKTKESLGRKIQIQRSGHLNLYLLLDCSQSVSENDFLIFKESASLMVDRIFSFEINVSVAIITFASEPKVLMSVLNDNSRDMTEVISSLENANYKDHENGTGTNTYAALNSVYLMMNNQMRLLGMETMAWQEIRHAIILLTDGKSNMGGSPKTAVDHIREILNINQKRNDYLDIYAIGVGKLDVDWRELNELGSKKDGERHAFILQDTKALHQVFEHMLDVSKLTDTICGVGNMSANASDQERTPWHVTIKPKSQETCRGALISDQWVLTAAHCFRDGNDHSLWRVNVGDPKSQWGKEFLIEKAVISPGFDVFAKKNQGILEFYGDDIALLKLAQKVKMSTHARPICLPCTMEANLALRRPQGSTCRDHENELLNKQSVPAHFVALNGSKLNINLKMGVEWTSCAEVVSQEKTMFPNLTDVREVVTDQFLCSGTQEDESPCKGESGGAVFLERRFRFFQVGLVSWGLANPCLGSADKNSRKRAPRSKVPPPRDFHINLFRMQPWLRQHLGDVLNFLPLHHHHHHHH

Another assay deals with T2, human C2 K711A (human, UniProt P06681 21-752).
T2 sequence: T1 sequence with A682Y, K691A

The target of another assay is T3, human C2 R719A (human, UniProt P06681 21-752).
T3 sequence: T1 sequence with A682Y, R699A

Another assay has as its target T4, human C2 H451A (human, UniProt P06681 21-752).
T4 sequence: T1 sequence with H431A, A682Y

B1: RF16-226 (antibody, human IgG4 S228P, lambda)
heavy: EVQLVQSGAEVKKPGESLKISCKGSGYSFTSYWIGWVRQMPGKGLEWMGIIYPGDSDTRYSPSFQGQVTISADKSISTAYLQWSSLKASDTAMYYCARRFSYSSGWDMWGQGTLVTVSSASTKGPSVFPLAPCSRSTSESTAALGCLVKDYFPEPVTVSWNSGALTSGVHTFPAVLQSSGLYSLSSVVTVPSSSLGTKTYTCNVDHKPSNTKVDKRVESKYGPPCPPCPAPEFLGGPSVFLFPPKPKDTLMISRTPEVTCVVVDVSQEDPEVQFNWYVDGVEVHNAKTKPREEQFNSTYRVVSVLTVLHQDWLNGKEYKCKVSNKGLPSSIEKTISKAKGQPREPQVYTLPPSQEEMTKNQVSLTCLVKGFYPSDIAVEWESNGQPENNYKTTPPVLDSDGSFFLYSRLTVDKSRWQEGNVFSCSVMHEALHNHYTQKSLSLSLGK
light: SYELTQPPSVSVSPGQTARITCSGDALTSKYVAWYQQKSGLAPLLVIYEDTRRPSGIPAKFSGSSSGSVATLTISGAHGDDEADYYCYSTDASGHQRVFGGGTKLTVLSQPKAAPSVTLFPPSSEELQANKATLVCLISDFYPGAVTVAWKADGSPVKAGVETTKPSKQSNNKYAASSYLSLTPEQWKSHRSYSCQVTHEGSTVEKTVAPTECS
notes: pH-dependent anti-C2 antibody from a phage display library; also called WT
As to B1, the Fold diff with human C2 Y702A turned out to be 11 fold; with human C2 K711A it was 5 fold; with human C2 R719A, 1 fold; with human C2 H451A, 11 fold.
